Source: paper doi:10.1101/2020.08.27.270991 (bioRxiv, 2020)

Key:
[1] = molecular target: full-length Thermus thermophilus MgtE (Thermus thermophilus, UniProt Q5SMG8); assay: ITC
cryo-EM structure = molecular target: the molecule itself; assay: cryo-EM structure
cross-linking = molecular target: the molecule itself; assay: cross-linking

B1: Fab antibody fragment Fab705 (Fab, V domains shown)
VH: EVKLQESGVELVKPGASVKISCKASGYSFTGYNMNWVKQSHGKSLEWIGNISPYYGTSIYNQNFKGKATLTVDRSSSTAYMQLNSLTSEDSAVYYCARGESFSNYEGYYAMDYWGQGTSVIVSS
VL: DVLMTQTPLSLPVSLGDQASISCRSSQSLVHSDGNTYLHWYLQKPGQSPKLLIYKVSNRFSGVPDRFSGSGSGTDFTLKISRVEAEDLGVYFCSQSTHVPWTFGGGTKLEIK
Work on B1 yielded a Kd [1] of 253 ± 71.1 nM.

B2: full-length Thermus thermophilus MgtE (natural protein, UniProt Q5SMG8 1-450, looked up)
chain: MEEKLAVSLQEALQEGDTRALREVLEEIHPQDLLALWDELKGEHRYVVLTLLPKAKAAEVLSHLSPEEQAEYLKTLPPWRLREILEELSLDDLADALQAVRKEDPAYFQRLKDLLDPRTRAEVEALARYEEDEAGGLMTPEYVAVREGMTVEEVLRFLRRAAPDAETIYYIYVVDEKGRLKGVLSLRDLIVADPRTRVAEIMNPKVVYVRTDTDQEEVARLMADYDFTVLPVVDEEGRLVGIVTVDDVLDVLEAEATEDIHKLGAVDVPDLVYSEAGPVALWLARVRWLVILILTGMVTSSILQGFESVLEAVTALAFYVPVLLGTGGNTGNQSATLIIRALATRDLDLRDWRRVFLKEMGVGLLLGLTLSFLLVGKVYWDGHPLLLPVVGVSLVLIVFFANLVGAMLPFLLRRLGVDPALVSNPLVATLSDVTGLLIYLSVARLLLEAV
For B2, the “stoichiometry N” value (cryo-EM structure) was 2.

B3: MgtE double cysteine mutant T336C/L421C (natural protein, Thermus thermophilus, UniProt Q5SMG8 1-450, looked up)
chain: MEEKLAVSLQEALQEGDTRALREVLEEIHPQDLLALWDELKGEHRYVVLTLLPKAKAAEVLSHLSPEEQAEYLKTLPPWRLREILEELSLDDLADALQAVRKEDPAYFQRLKDLLDPRTRAEVEALARYEEDEAGGLMTPEYVAVREGMTVEEVLRFLRRAAPDAETIYYIYVVDEKGRLKGVLSLRDLIVADPRTRVAEIMNPKVVYVRTDTDQEEVARLMADYDFTVLPVVDEEGRLVGIVTVDDVLDVLEAEATEDIHKLGAVDVPDLVYSEAGPVALWLARVRWLVILILTGMVTSSILQGFESVLEAVTALAFYVPVLLGTGGNTGNQSACLIIRALATRDLDLRDWRRVFLKEMGVGLLLGLTLSFLLVGKVYWDGHPLLLPVVGVSLVLIVFFANLVGAMLPFLLRRLGVDPACVSNPLVATLSDVTGLLIYLSVARLLLEAV
B3: binds (cross-linking).
